# Laboratory results published in IntAct's records for PubMed 25764370.
# B1: Structural maintenance of chromosomes protein 5 (Saccharomyces cerevisiae), Q08204 (parent)
# chain: MTSLIDLGRYVERTHHGEDTEPRSKRVKIAKPDLSSFQPGSIIKIRLQDFVTYTLTEFNLSPSLNMIIGPNGSGKSTFVCAVCLGLAGKPEYIGRSKKVEDFIKNGQDVSKIEITLKNSPNVTDIEYIDARDETIKITRIITRSKRRSDYLINDYQVSESVVKTLVAQLNIQLDNLCQFLSQERVEEFARLKSVKLLVETIRSIDASLLDVLDELRELQGNEQSLQKDLDFKKAKIVHLRQESDKLRKSVESLRDFQNKKGEIELHSQLLPYVKVKDHKEKLNIYKEEYERAKANLRAILKDKKPFANTKKTLENQVEELTEKCSLKTDEFLKAKEKINEIFEKLNTIRDEVIKKKNQNEYYRGRTKKLQATIISTKEDFLRSQEILAQTHLPEKSVFEDIDIKRKEIINKEGEIRDLISEIDAKANAINHEMRSIQRQAESKTKSLTTTDKIGILNQDQDLKEVRDAVLMVREHPEMKDKILEPPIMTVSAINAQFAAYLAQCVDYNTSKALTVVDSDSYKLFANPILDKFKVNLRELSSADTTPPVPAETVRDLGFEGYLSDFITGDKRVMKMLCQTSKIHTIPVSRRELTPAQIKKLITPRPNGKILFKRIIHGNRLVDIKQSAYGSKQVFPTDVSIKQTNFYQGSIMSNEQKIRIENEIINLKNEYNDRKSTLDALSNQKSGYRHELSELASKNDDINREAHQLNEIRKKYTMRKSTIETLREKLDQLKREARKDVSQKIKDIDDQIQQLLLKQRHLLSKMASSMKSLKNCQKELISTQILQFEAQNMDVSMNDVIGFFNEREADLKSQYEDKKKFVKEMRDTPEFQSWMREIRSYDQDTKEKLNKVAEKYEEEGNFNLSFVQDVLDKLESEIAMVNHDESAVTILDQVTAELRELEHTVPQQSKDLETIKAKLKEDHAVLEPKLDDIVSKISARFARLFNNVGSAGAVRLEKPKDYAEWKIEIMVKFRDNAPLKKLDSHTQSGGERAVSTVLYMIALQEFTSAPFRVVDEINQGMDSRNERIVHKAMVENACAENTSQYFLITPKLLTGLHYHEKMRIHCVMAGSWIPNPSEDPKMIHFGETSNYSFD
# partner: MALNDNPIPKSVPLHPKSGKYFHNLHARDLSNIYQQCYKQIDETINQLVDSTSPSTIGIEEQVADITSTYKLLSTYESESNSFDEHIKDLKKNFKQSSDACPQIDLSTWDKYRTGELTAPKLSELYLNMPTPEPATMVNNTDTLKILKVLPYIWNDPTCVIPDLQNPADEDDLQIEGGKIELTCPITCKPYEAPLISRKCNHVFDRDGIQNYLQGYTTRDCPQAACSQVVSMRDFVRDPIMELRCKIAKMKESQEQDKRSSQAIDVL
# B2: Structural maintenance of chromosomes protein 5 (Saccharomyces cerevisiae), Q08204 (parent)
# chain: B1 chain
# Variants of: B1
# Conditions: with nse2_yeast MMS21, P38632
row,Variant,effect of a mutation on the interaction
1,I780R;I784R;F787A;N791A,disrupting interaction strength
2,Q752A;L755A;L762A,decreasing interaction strength

# Variants of: B2
# Conditions: with smt3_yeast SMT3, Q12306
# Sequence of smt3_yeast SMT3, Q12306 (Q12306 whole entry): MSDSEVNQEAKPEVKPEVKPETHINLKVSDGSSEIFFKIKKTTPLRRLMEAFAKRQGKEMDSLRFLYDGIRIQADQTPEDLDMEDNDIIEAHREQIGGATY
row,Variant,effect of a mutation on the interaction
1,M769A;K773A,decreasing interaction strength
2,I780R;I784R;F787A;N791A,disrupting interaction strength
3,Q752A;L755A;L762A,decreasing interaction strength
